{"source": "paper PMC9640584", "about": "“An active site loop toggles between conformations to control antibiotic hydrolysis and inhibition potency for CTX-M β-lactamase drug-resistance enzymes” (Nature Communications, 2022)", "molecules": {"B1": {"name": "β-lactamase inhibitory protein (BLIP), wild type (natural protein)", "chain": "AGVMTGAKFTQIQFGMTRQQVLDIAGAENCETGGSFGDSIHCRGHAAGDYYAYATFGFTSAAADAKVDSKSQEKLLAPSAPTLTLAKFNQVTVGMTRAQVLATVGQGSCTTWSEYYPAYPSTAGVTLSLSCFDVDGYSSTGFYRGSAHLWFTDGVLQGKRQWDLV", "notes": "No removal of the His tag is described; source: E. coli RB791, plasmid pGR32, purified (Co2+ Talon column, gel filtration)"}}, "test_in_all_cases": "enzyme inhibition assay (nitrocefin hydrolysis, Ki by fit to the Morrison equation); increasing concentrations of BLIP incubated with β-lactamase (0.05-0.6 nM) for 20 min, then nitrocefin added; initial velocity at 482 nm; 50 mM sodium phosphate pH 7.0, 100 μg/ml BSA", "key": {"[1]": {"target": "CTX-M-14 N106S β-lactamase"}, "[2]": {"target": "CTX-M-15 G240D β-lactamase (Klebsiella pneumoniae)"}, "[3]": {"target": "CTX-M-15 N106S β-lactamase (Klebsiella pneumoniae)"}, "[4]": {"target": "CTX-M-15 β-lactamase, wild type (Klebsiella pneumoniae)"}, "[5]": {"target": "T1, CTX-M-14 β-lactamase, wild type (UniProt Q9L5C7 29-291)", "T1 construct": "also called CTX-M-14 wild type; source: E. coli BL21(DE3), pET28a, purified (Co2+ Talon, TEV cleavage, Ni2+ Sepharose); not shown: His6, N-terminal, cleaved", "conditions": "both partners purified"}}, "data": [{"molecule": "β-lactamase inhibitory protein (BLIP), wild type (from UniProt P35804) (natural protein)", "values": [{"measurement": "Ki", "setting": "[1]", "result": 2.1, "unit": "nM"}, {"measurement": "Ki", "setting": "[2]", "result": 5, "unit": "nM"}, {"measurement": "Ki", "setting": "[3]", "result": 0.35, "unit": "nM"}, {"measurement": "Ki", "setting": "[4]", "result": 2.9, "unit": "nM"}]}, {"molecule": "B1", "values": [{"measurement": "Ki", "setting": "[5]", "result": 330, "unit": "nM"}]}]}
